Assay results published in US20240150440A1 (LUMEN BIOSCIENCE, published 2024).
Where two headings read alike, the source gives them in different places.

Tests used:
[1] = target: T1, recombinant SARS-CoV-2 RBD with C-terminal AviTag (SARS-CoV-2, UniProt P0DTC2 319-541); assay: ELISA, competition with coated ACE2-Fc for RBD [Cont. 4]
[2] = target: T1, recombinant SARS-CoV-2 RBD with …; assay: ELISA, competition with coated ACE2-Fc for RBD [Cont. 5]
[3] = target: T1, recombinant SARS-CoV-2 RBD with …; assay: ELISA, competition with coated ACE2-Fc for RBD [Cont. 3]
[4] = target: SARS-COV-2 Wuhan Reference RBD (SARS-CoV-2, UniProt P0DTC2 319-541); assay: ELISA, RBD coated
[5] = target: T1, recombinant SARS-CoV-2 RBD with …; assay: BLI, biotinylated RBD on streptavidin biosensors
[6] = target: T1, recombinant SARS-CoV-2 RBD with …
[7] = target: T1, recombinant SARS-CoV-2 RBD with …; remark: listed apart in the source
[8] = target: T1, recombinant SARS-CoV-2 RBD with …; remark: listed apart in the source
[9] = target: T1, recombinant SARS-CoV-2 RBD with …; remark: listed apart in the source
[10] = target: T1, recombinant SARS-CoV-2 RBD with …; remark: listed apart in the source
[11] = target: T1, recombinant SARS-CoV-2 RBD with …; remark: listed apart in the source
[12] = target: T1, recombinant SARS-CoV-2 RBD with …; assay: BLI, biotinylated RBD on streptavidin biosensors [Cont. 8]
[13] = target: T1, recombinant SARS-CoV-2 RBD with …; assay: ELISA, competition with coated ACE2-Fc for RBD [Cont. 8]
[14] = target: T1, recombinant SARS-CoV-2 RBD with …; remark: listed apart in the source
[15] = target: T1, recombinant SARS-CoV-2 RBD with …; remark: listed apart in the source
[16] = target: T1, recombinant SARS-CoV-2 RBD with …; assay: ELISA, competition with coated ACE2-Fc for RBD [Cont. 2]
[17] = target: T1, recombinant SARS-CoV-2 RBD with …; assay: ELISA, competition with coated ACE2-Fc for RBD

B1: PP1151 MBP-5HVZ-PAPA-R5d-B5-H6 (VHH)
VHH: QVQLVESGGGLVQPGGSLRLSCAASGSRDSIVAMHWYRQAPGKGREGVAGITSRWVTYYADSVKGRFTISRDNAKNTVYLQMNSLKPEDTAVYYCNAPVYYDTEWYDIWGQGTQVTVSS
notes: Form: Dimer
[1]
  IC50: 23.1 nM

B2: PP1141 MBP-4B0F-PAPA-R5d-D4-H6 (VHH)
VHH: QVQLVESGGGLVQPGGSLRLSCAASGSDFTINAMHWFRQAPGKQREFVATITSTSSTAYRDSVKGRFTISRDNAKNTVYLQMNSLKPEDTAVYYCAAFAVRDADTAGWTARDYWGQGTQVTVSS
notes: Form: Heptamer
[2]
  IC50: 74.6 nM

B3: MBP-5HVZ-R5B-G1-H6 (VHH)
VHH: QVQLVESGGGLVQPGGSLRLSCAASGSIGQIVLVHWFRQAPGKQRELVAGITSPSSTYYADSVKGRFTISRDNAKNTVYLQMNSLKPEDTAVYYCNTELEGKTQGFTGKTVWYDYWGQGTQVTVSS
[3]
  IC50: 26.6 nM

B4: PP1150 MBP-5HVZ-PAPA-R5b-G1-H6 (VHH)
VHH: B3 VHH
notes: Form: Dimer
[3]
  IC50: 5.2 nM
[4]
  EC50: 0.64 nM

B5: PP1152 MBP-5HVZ-PAPA-R5d-B6-H6 (VHH)
VHH: QVQLVESGGGLVQPGGSLRLSCAASGRILAANIVHWYRQAPGKEREGVAGITSGGGSYYADSVKGRFTISRDNAKNTVYLQMNSLKPEDTAVYYCNALGLGQSSLYRSADPYDSWGQGTQVTVSS
notes: Form: Dimer
[1]
  IC50: 4.7 nM

B6: PP1140 MBP-4B0F-PAPA-R5d-B6-H6 (VHH)
VHH: B5 VHH
notes: Form: Heptamer
[2]
  IC50: 106 nM

B7: MBP-R2B-D5-H6 (VHH)
VHH: QVQLVESGGGLVQPGGSLRLSCAASGYADEINMVHWYRQAPGKGREFVAAIASGGSTFYADSVKGRFTISRDNAKNTVYLQMNSLKPEDTAVYYCAAIPRPSLSYAHDYAYWGQGTQVTVSS
notes: monomer
[5]
  Kd: 82 nM

B8: R2B-D5 monomer (PP805) (VHH, not shown: large carriers; small tags and cut ends)
VHH: B7 VHH
[6]
  Kd: 10 nM
  koff: 0.00226 s⁻¹
  kon: 226000 M⁻¹ s⁻¹

B9: PP1898 Cerberbody (1-R2B-D5 and 2-S3b-C8) (other, not shown: large carriers; small tags and cut ends)
VHH 1: QVQLVESGGGLVQPGGSLRLSCAASGSIENIERMHWYRQAPGKQRELVAVIDSGGTTRYADSVKGRFTISRDNAKNTVYLQMNSLKPEDTAVYYCAAVWLTNAESTQEYWGQGTQVTVSS
VHH 2: B7 VHH
[7]
  Kd: 0.4 nM
  koff: 0.000218 s⁻¹
  kon: 540000 M⁻¹ s⁻¹

B10: PP1896 Cerberbody (2-R2B-D5 and 1-S3b-C8) (other, not shown: large carriers)
chain 1: QVQLVESGGGLVQPGGSLRLSCAASGYADEINMVHWYRQAPGKGREFVAAIASGGSTFYADSVKGRFTISRDNAKNTVYLQMNSLKPEDTAVYYCAAIPRPSLSYAHDYAYWGQGTQVTVSSHHHHHH
chain 2: QVQLVESGGGLVQPGGSLRLSCAASGSIENIERMHWYRQAPGKQRELVAVIDSGGTTRYADSVKGRFTISRDNAKNTVYLQMNSLKPEDTAVYYCAAVWLTNAESTQEYWGQGTQVTVSSTVILEYAHRLSQDILSDALQQWASHHHHHHHH
[8]
  Kd: < 0.001 nM
  koff: < 1e-07 s⁻¹
  kon: 248000 M⁻¹ s⁻¹

B11: PP1897 Cerberbody (3-S3b-C8) (other, not shown: large carriers)
chain 1: QVQLVESGGGLVQPGGSLRLSCAASGSIENIERMHWYRQAPGKQRELVAVIDSGGTTRYADSVKGRFTISRDNAKNTVYLQMNSLKPEDTAVYYCAAVWLTNAESTQEYWGQGTQVTVSSHHHHHH
chain 2: B10 chain 2
[9]
  Kd: 0.73 nM
  koff: 0.000382 s⁻¹
  kon: 521000 M⁻¹ s⁻¹

B12: MBP-5HVZ-R5C-B1-H6 (VHH, not shown: large carriers; small tags and cut ends)
VHH: QVQLVESGGGLVQPGGSLRLSCAASGSGFSNNAMHWYRQAPGKQREGVAGITSGSVSFYADSVKGRFTISRDNAKNTVYLQMNSLKPEDTAVYYCAAVTGSSTGNAGQGYLTWGQGTQVTVSS
[10]
  IC50: 0.3 nM
  Kd: 9.98 nM
[11]
  Kd: 10 nM

B13: PP927 MBP-5HVZ-R1i-C8-H6 (VHH)
VHH: QVQLVESGGGLVQPGGSLRLSCAASGRQFGAWRMHWYRQAPGKQREWVAGITSGTSGNYADSVKGRFTISRDNAKNTVYLQMNSLKPEDTAVYYCAATSHTTYHAEYWGQGTQVTVSS
notes: Form: Dimer
[12]
  Kd: 25.2 nM
[4]
  EC50: 1.43 nM
[13]
  IC50: 111 nM

B14: PP931 MBP-5HVZ-R5a-F5-H6 (VHH)
VHH: QVQLVESGGGLVQPGGSLRLSCAASGYHASILAMHWVRQAPGKEREWVASMTWSDMTQYSDSVKGRFTISRDNAKNTVYLQMNSLKPEDTAVYYCAATYVTRDRPWTHWGQGTQVTVSS
notes: Form: Dimer
[12]
  Kd: 11.9 nM
[4]
  EC50: 1.93 nM
[13]
  IC50: 5.6 nM

B15: PP934 MBP-5HVZ-S3a-H2-H6 (VHH)
VHH: QVQLVESGGGLVQPGGSLRLSCAASGAAFSKNALHWFRQAPGKGREWVASITSGSGTQYMDSVKGRFTISRDNAKNTVYLQMNSLKPEDTAVYYCAALAYSGGYDYWGQGTQVTVSS
notes: Form: Dimer
[12]
  Kd: 18.4 nM
[4]
  EC50: 1.07 nM
[13]
  IC50: 2.2 nM

B16: R5A-B7 (competition ELISA sample) (VHH)
VHH: QVQLVESGGGLVQPGGSLRLSCAASGAFFSYGAIHWFRQAPGKQREEVAAITSGGSTGYADSVKGRFTISRDNAKNTVYLQMNSLKPEDTAVYYCNAGVVWLPSNAAYNLWGQGTQVTVSS
[14]
  Kd: 13.1 nM

B17: MBP-5HVZ-R5A-E5-H6 (VHH, not shown: large carriers; small tags and cut ends)
VHH: QVQLVESGGGLVQPGGSLRLSCAASGYDFDILRMAWFRQAPGKEREMVAAITSAESVNYEDSVKGRFTISRDNAKNTVYLQMNSLKPEDTAVYYCATYDYTDDYGYASWGQGTQVTVSS
[15]
  IC50: 17.7 nM
  Kd: 31 nM
[11]
  Kd: ~31 nM

B18: PP1149 MBP-5HVZ-PAPA-R5a-E5-H6 (VHH)
VHH: B17 VHH
notes: Form: Dimer
[16]
  IC50: 14.2 nM
[4]
  EC50: 2.5 nM

B19: dimeric VHH (VHH-5HVZ-MBP) R2B-E6 (VHH)
VHH: QVQLVESGGGLVQPGGSLRLSCAASGGVTRGNAMAWYRQAPGKQREIVAAIDNGGSHAYGDSVKGRFTISRDNAKNTVYLQMNSLKPEDTAVYYCAVFPDHDSEQASIDRVYWGQGTQVTVSS
[5]
  Kd: 10.3 nM
[17]
  IC50: 17.9 nM

B20: PP1148 MBP-5HVZ-PAPA-R5a-C5-H6 (VHH)
VHH: QVQLVESGGGLVQPGGSLRLSCAASGDIFSINALHWFRQAPGKQREEVAAITSGGSTGYADSVKGRFTISRDNAKNTVYLQMNSLKPEDTAVYYCAAQQARGGLDSDYWGQGTQVTVSS
notes: Form: Dimer
[16]
  IC50: 1.1 nM
[4]
  EC50: 0.3 nM

B21: PP1136 MBP-4B0F-PAPA-R5a-C5-H6 (VHH)
VHH: B20 VHH
notes: Form: Heptamer
[16]
  IC50: 1.8 nM

B22: PP1160 MPB-scTRP-PAPA-R5a-C5-H6 (VHH)
VHH: B20 VHH
notes: Form: Trimer
[16]
  IC50: 2.9 nM
